# Measured values as given in PMC2602864.
# B1: EcoR124I HsdR subunit, wild type (enzyme)
# chain: MTHQTHTIAESNNFIVLDKYIKAEPTGDSYQSESDLERELIQDLRNQGYEFISVKSQSAMLANVREQLQNLNGVVFNDSEWRRFTEQYLDNPSDGILDKTRKIHIDYICDFIFDDERLENIYLIDKKNLMRNKVQIIQQFEQAGSHANRYDVTILVNGLPLVQIELKKRGVAIREAFNQIHRYSKESFNSENSLFKYLQLFVISNGTDTRYFANTTKRDKNSFDFTMNWAKSDNTLIKDLKDFTATCFQKHTLLNVLVNYSVFDSSQTLLVMRPYQIAATERILWKIKSSFTAKNWSKPESGGYIWHTTGSGKTLTSFKAARLATELDFIDKVFFVVDRKDLDYQTMKEYQRFSPDSVNGSENTAGLKRNLDKDDNKIIVTTIQKLNNLMKAESDLPVYNQQVVFIFDECHRSQFGEAQKNLKKKFKRYYQFGFTGTPIFPENALGSETTASVFGRELHSYVITDAIRDEKVLKFKVDYNDVRPQFKSLETETDEKKLSAAENQQAFLHPMRIQEITQYILNNFRQKTHRTFPGSKGFNAMLAVSSVDAAKAYYATFKRLQEEAANKSATYKPLRIATIFSFAANEEQNAIGEISDETFDTSAMDSSAKEFLDAAIREYNSHFKTNFSTDSNGFQNYYRDLAQRVKNQDIDLLIVVGMFLTGFDAPTLNTLFVDKNLRYHGLMQAFSRTNRIYDATKTFGNIVTFRDLERSTIDAITLFGDKNTKNVVLEKSYTEYMEGFTDAATGEAKRGFMTVVSELEQRFPDPTSIESEKEKKDFVKLFGEYLRAENILQNYDEFATLKALQQIDLSDPVAVEKFKAEHYVDDEKFAELQTIRLPADRKIQDYRSAYNDIRDWQRREKEAEKKEKSTTDWDDVVFEVDLLKSQEINLDYILGLIFEHNRQNKGKGEMIEEVKRLIRSSLGNRAKEGLVVDFIQQTNLDDLPDKASIIDAFFTFAQREQQREAEALIKEENLNEDAAKRYIRTSLKREYATENGTELNETLPKLSPLNPQYKTKKQAVFQKIVSFIEKFKGVGGKI
# Molecular target: EcoR124I core methyltransferase (HsdM2HsdS1) (not stated (hsd genes of the IncFIV plasmid R124, carried in E. coli)) (UniProt P10484)
# UniProt P10484, sequence (P10484 whole entry, chain 1 of 2): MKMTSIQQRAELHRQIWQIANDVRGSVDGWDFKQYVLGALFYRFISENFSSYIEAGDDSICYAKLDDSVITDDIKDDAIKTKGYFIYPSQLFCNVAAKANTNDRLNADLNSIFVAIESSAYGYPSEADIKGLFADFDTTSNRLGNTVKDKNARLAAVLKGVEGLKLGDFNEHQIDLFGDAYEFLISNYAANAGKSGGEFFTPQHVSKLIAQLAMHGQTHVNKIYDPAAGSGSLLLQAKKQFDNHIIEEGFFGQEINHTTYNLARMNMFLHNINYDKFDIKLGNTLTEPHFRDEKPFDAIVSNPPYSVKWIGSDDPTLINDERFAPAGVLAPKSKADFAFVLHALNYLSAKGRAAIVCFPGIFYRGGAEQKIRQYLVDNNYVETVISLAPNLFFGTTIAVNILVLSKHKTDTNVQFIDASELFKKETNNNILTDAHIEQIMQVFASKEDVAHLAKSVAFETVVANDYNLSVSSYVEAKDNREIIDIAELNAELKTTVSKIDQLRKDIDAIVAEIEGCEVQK
# UniProt P10484, sequence (P10485 whole entry, chain 2 of 2, further chain): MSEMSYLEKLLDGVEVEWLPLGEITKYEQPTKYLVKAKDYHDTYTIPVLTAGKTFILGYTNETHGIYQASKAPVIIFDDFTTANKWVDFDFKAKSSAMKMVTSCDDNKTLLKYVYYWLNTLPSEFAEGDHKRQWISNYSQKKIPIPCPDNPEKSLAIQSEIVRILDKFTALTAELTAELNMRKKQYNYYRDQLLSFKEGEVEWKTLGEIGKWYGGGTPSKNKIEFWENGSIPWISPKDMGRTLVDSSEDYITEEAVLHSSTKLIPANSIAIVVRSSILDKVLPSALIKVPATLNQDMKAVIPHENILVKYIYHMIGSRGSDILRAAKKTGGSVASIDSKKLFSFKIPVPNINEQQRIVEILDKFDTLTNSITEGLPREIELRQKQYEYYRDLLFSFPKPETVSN
binder,measurement,value
B1,"mean lifetime of a DNA translocation event, R1 complex (one HsdR on the MTase), magnetic tweezers",0.95 s
